The record followed here is patent EP4613767 (dated 2025).

Assay [1] addresses T1, human CD3 (Jurkat cells) (human, UniProt P07766).
T1 chain: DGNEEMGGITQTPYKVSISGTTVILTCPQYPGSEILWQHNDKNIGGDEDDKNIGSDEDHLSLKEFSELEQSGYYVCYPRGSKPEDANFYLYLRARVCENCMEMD
The assay can be described thus: FACS, Jurkat cells.

The target in assay [2] is T2, monkey CD3 E&D protein (cynomolgus monkey, UniProt Q95LI5).
T2 chain 1: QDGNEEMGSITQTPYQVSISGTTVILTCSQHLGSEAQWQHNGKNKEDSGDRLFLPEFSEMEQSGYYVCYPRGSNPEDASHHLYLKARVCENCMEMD
T2 chain 2: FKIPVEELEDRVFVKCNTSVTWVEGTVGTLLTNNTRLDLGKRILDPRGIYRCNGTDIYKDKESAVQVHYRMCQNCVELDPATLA
The assay can be described thus: SPR. For orientation: In SPR one partner is held on a chip, and binding of the other changes the refractive index at the surface.

Assay [3] deals with human GPC3 protein (human, UniProt P51654). Description: SPR.
Chain of human GPC3 protein (P51654 25-554): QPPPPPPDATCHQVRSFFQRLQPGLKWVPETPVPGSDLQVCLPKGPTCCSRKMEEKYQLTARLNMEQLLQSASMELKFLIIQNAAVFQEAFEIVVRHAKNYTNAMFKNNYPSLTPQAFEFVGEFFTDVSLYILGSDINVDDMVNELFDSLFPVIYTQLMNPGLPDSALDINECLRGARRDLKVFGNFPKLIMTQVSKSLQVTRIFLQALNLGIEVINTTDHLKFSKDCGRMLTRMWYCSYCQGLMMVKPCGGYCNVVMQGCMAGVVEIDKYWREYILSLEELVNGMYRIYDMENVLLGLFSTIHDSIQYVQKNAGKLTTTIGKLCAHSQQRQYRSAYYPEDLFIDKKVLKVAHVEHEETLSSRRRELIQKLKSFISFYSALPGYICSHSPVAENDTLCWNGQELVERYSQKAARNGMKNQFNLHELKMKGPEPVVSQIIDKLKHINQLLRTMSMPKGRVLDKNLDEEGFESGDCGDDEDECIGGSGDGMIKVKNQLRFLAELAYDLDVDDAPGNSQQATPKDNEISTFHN
Assay [4] addresses human GPC3 (HepG2 cells) (human, UniProt P51654). The assay can be described thus: FACS, HepG2 cells. (A flow cytometer gives signals particle by particle.)
Assay [5] concerns the target T3, human CD3 E&D protein (human, UniProt P07766).
T3 chain 1: T1 chain
T3 chain 2: T2 chain 2 with V5I, K15N, V20I, T32S, N33D, N34I, A64T, N74S, L83V
The assay can be described thus: SPR.

Numbering of substitutions follows the chain as printed.

A word on the EC50: it is the midpoint of the concentration-response curve. The term Kd denotes the concentration at which binding is half-saturated.

Chain of human GPC3 (HepG2 cells) (P51654 25-554): as above

B1: G100 (anti-CD3 scFv arm) (antibody, V domains shown)
VH: EVKLVESGGGLVQPGGSLKLSCAASGFTFNTYAMNWVRQAPGKGLEWVARIRSKYNNYATYYADSVKDRFTISRDDAKNTLYLQMNNLRTEDTAVYYCVRHGNFGNSYVSWFAYWGQGTLVTVSS
VL: QAVVTQEPSLTVSPGGTVTLTCRSSTGAVTTSNYANWVQQKPGQAPRGLIGGTNKRAPGTPARFSGSLLGGKAALTLSGAQPEDEAEYYCALWYSNLWVFGGGTKLTVL
In the case of B1, the EC50 in assay [1] was 23.9 nM.

B2: G156 (anti-CD3 scFv arm) (antibody, V domains shown)
VH: B1 VH
VL: B1 VL
modifications: Acro CDD-C52W4
For the molecule B2, in assay [2], binding was characterised by a dissociation constant (Kd) of 2.79 nM.

B3: G156 (anti-GPC3 VHH arm, two VHH copies, Format 2) (antibody, V domains shown)
VH: QVQLVESGGGVVQPGGSLRLSCAASGRTLTNYVMGWFRQAPGKEREIVAGINWAGSRIGYGDFVKGRFTISRDNSKNTVYLQMNSLRPEDTAVYYCAAKLGKYNYPEYDYRGQGTLVTVSS
VL: B1 VL
On to B3, for which, in assay [3], binding was put at a Kd of 5.42 nM. This molecule had an EC50 in assay [4] of 0.16 nM.

B4: G100 (anti-GPC3 VHH arm, monovalent, Format 1) (antibody, V domains shown)
VH: B3 VH
VL: B1 VL
The molecule B4 returned a Kd in assay [3] of 8.36 nM. The molecule also yielded an EC50 in assay [4] of 0.42 nM.

B5: G156 (anti-CD3 scFv arm) (antibody, V domains shown)
VH: B1 VH
VL: B1 VL
modifications: Acro CDD-H52W1
B5 had a Kd in assay [5] of 1.3 nM.

B6: G156 (anti-CD3 scFv arm) (antibody, V domains shown)
VH: B1 VH
VL: B1 VL
B6 showed a half-maximal effective concentration (EC50) in assay [1] of 27.4 nM.

B7: G100 (anti-CD3 scFv arm) (antibody, V domains shown)
VH: B1 VH
VL: B1 VL
modifications: Acro CDD-H52W1
B7 displayed an equilibrium dissociation constant (Kd) in assay [5] of 3.49 nM.

B8: G100 (anti-CD3 scFv arm) (antibody, V domains shown)
VH: B1 VH
VL: B1 VL
modifications: Acro CDD-C52W4
B8 came in with a Kd in assay [2] of 5.66 nM.
